Experimental data taken from article PMC4072508, “Genome-Wide Prediction and Validation of Peptides That Bind Human Prosurvival Bcl-2 Proteins” (PLoS Computational Biology, 2014).

T1: Mcl-1, Q07820
T1 chain: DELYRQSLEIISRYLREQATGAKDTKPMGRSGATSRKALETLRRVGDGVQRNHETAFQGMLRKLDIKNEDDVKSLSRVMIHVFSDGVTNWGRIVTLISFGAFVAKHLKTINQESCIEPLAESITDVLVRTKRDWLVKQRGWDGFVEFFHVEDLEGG


Molecular target: Bcl-xL, Q07817
Test: peptide SPOT array, c-Myc-tagged receptor at 1 uM or 100 nM, anti-c-Myc-Cy3

Sequence of Bcl-xL, Q07817 (Q07817 1-209): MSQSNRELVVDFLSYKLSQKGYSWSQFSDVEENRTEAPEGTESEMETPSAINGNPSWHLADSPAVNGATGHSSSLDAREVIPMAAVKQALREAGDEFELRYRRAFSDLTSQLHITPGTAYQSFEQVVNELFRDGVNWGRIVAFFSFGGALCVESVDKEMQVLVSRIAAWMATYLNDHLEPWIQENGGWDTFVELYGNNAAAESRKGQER

Row | Binder | SPOT signal as a fraction of Bim BH3's signal on the same receptor and array
1 | CLSCDLCGCRLGEVLRRLYYKLGRKL | 0.54
2 | IKKSVTKGEMDKIVGKRFREHFPEIL [MAGEB2] | 0.4
3 | EVLAGPLAQRLSHILEDVGRLVKKSR [ARHGAP4] | 0.19
4 | EARVLEEASRLEEEAQQTRLQLQQRL [EVC] | 0.02
5 | LREVRESIRFLRQVLRDWVQRRREAL | 0.44
6 | LREVRESIRFDRQVGRDWVQRRREAL | 1.14
7 | AYRGRGIAKHDAKAALDFVVEEDLKA | 0.21
8 | GSGPSKTSRVLQNVAFSVQKEVEKNL [BCL2A1] | 0.06
9 | AYRGRGIAKHLAKALLDFVVEEDLKA | 0.17
10 | RYPILENPEIDRKTADDFLNRIALTD [CCNH] | 0.02
11 | CLSCDLCGCRDGEVGRRLYYKLGRKL | 1.08
12 | PFGLQGNSEYLIEFSRNLGKSSEHLL [CGNL1] | 0.03
13 | GSIAKKFSAALQKLSSHLQPRVPEHS [ANO2] | 0.11
14 | LQIIPTLCHLLRALSDDGVSDLEDPT [DFNA5] | 0.03
15 | WLVLRRLVTLITQLAKELSNKGVLKT [BCAP29] | 0.35
16 | PKELEGYIQKLQNAAERLATENRKLR [DYNC2H1] | 0.09
17 | QFEIEKSCELLFQMAESVDYDYDVQD [DHX40] | 0.02

More lines, now with the values ahead:

Row | SPOT signal as a fraction of Bim BH3's signal on the same receptor and array | Binder
18 | 0.11 | KSRLVQQSKALKELLDELQERCQRPA [TRIM58]
19 | 0.09 | PEDLQDVGWFLHKLLQQILKKEKEKK [TLR5]
20 | 0.03 | DLQIYQPGRRLQTVSKESASRVEEEE [SMG6]
21 | 0.21 | LHQAKDFGNYLFNFASAATKKITESV [SYAP1]
22 | 0.22 | RAELTGLARRLADRARELQETNLRAV [RIMBP3C]
23 | 0.03 | TDENKKVGLALKDLLKQYSDRLECCE [NUB1]
24 | 0.03 | RVIPHDGAEDLWIQAQELVRNMKENL [PLB1]
25 | 0.28 | KYDPSKYCHNLKKILEDFSNTIPISS
26 | 0.03 | LHNLVKAAQSLDEMSQTITDLLSEQK [RB1CC1]
27 | 0.08 | FNIPREAAERLRILAQSNNQQLRDLG [NCOA6]
28 | 0.17 | DFMGRTFAKPLVKMLDEAYCPPRFPP [OTOF]
29 | 0.05 | REHIKLLIQKLTDVAEECQNNQLKKL [PLCB1]
30 | 0.58 | KKRADSVANKLGSFGKTLGSKLKKNM [OTUD7B]
31 | 0.02 | NVGCQQDSEELLKLATSISETLEEKP [UBA6]
32 | 0.02 | GELAQVSGLEDRKWVDELFIIIMDML [mTOR]
33 | 0.08 | KYDPSKYCHNDKKIGEDFSNTIPISS
34 | 0.85 | RQAFYLHTTKLTRILRRLCREILRPW
35 | 1.39 | YGRLRPRARSLSKASTAINWLTKKFL [MYO15A]
36 | 0.92 | EVRSSQFARKDWRSSRRISQVSSGET [NBEAL2]
37 | 0.09 | FEKLRMIAKEIRHVLRMASVNMDPAL [RAPGEF2]
38 | 0.42 | NRKGEKNGKGLRHFLMKVCEKVQRKG
39 | 0.03 | LANVTEDAKRLIAVADSVLTKVVGDL [RNF213]
40 | 1.26 | RQAFYLHTTKDTRIARRLCREILRPW
41 | 0.18 | FERVEQMCIQIKEVLDRVNYIKRSLQ [TRPM7]
42 | 0.03 | GTKSQLLAKRLLDLSNEGFTNWEFMT [PCSK6]
43 | 0.47 | NRKGEKNGKGDRHFSMKVCEKVQRKG
44 | 0.03 | SDNLFKWVGTIHGAAGTVYEDLRYKL [UBE2C]

Molecular target: T1, Mcl-1, Q07820
Test: as above

Row | Binder | SPOT signal as a fraction of Bim BH3's signal on the same receptor and array
45 | HQQLTRAARLISETAQRVHTIGQKQK [C9orf100] | 0.57
46 | RLRSEYVAQCLGRAAQGGCPRARCRR [GFRA4] | 0.8
47 | GPEHPAVAATLNNLAVLYGKRGRYRE [KLC3] | 0.28
48 | RGLEQHVALYLEHGADVGLRTSQGET [ASB16] | 0.02
49 | EGAKSETAEELKKVAQELEEKLNILN [APOL1] | 0.01
50 | SGKLKEMVPIIAQYGDVLVRNLRREA [CYP3A4] | 0.07

Results, then the binder that gave them:

Row | SPOT signal as a fraction of Bim BH3's signal on the same receptor and array | Binder
51 | 0.02 | TGKDRLTAGLINIVSFDLLSKLEKQL [SMARCAL1]
52 | 0.08 | YYSSRQYASALKHIAEIIERGIRQHP [TTC30A]
53 | 0.05 | PSTYLAVAEELADVSGKYFDGLKQKA [RDH13]
